From patent US20030186334A1, “KTS-disintegrins” (Temple University - Of the Commonwealth System of Higher …, priority 2001, published 2003)
Where a chain is given by its changes, count along the chain named.

T1: αvβ3 integrin, P06756
T1 chain 1: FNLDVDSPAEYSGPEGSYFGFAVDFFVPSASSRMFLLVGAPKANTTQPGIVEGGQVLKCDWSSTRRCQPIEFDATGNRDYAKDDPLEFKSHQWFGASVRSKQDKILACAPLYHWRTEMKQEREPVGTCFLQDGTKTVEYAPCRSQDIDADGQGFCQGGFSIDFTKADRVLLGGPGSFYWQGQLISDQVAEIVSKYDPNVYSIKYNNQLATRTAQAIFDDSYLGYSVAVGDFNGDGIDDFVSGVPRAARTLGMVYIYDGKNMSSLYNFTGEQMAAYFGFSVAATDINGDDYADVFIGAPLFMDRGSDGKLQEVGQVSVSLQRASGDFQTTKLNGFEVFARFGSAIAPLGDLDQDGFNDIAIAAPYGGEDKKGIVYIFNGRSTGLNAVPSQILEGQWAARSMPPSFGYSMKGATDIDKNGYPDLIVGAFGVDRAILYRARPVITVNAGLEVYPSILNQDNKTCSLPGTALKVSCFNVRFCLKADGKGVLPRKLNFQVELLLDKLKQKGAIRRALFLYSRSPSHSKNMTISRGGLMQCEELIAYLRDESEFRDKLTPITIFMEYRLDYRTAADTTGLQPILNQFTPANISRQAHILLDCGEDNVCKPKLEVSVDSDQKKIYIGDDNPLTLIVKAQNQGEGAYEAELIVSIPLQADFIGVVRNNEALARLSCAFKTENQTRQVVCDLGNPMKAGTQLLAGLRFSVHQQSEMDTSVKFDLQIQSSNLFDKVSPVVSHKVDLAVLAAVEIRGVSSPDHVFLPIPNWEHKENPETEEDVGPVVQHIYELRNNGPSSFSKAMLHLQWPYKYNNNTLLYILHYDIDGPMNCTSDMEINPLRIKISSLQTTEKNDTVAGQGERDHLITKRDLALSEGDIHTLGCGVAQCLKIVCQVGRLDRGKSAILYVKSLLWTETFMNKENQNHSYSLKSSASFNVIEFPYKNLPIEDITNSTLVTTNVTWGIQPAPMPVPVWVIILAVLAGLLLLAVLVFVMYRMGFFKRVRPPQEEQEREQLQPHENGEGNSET
T1 chain 2: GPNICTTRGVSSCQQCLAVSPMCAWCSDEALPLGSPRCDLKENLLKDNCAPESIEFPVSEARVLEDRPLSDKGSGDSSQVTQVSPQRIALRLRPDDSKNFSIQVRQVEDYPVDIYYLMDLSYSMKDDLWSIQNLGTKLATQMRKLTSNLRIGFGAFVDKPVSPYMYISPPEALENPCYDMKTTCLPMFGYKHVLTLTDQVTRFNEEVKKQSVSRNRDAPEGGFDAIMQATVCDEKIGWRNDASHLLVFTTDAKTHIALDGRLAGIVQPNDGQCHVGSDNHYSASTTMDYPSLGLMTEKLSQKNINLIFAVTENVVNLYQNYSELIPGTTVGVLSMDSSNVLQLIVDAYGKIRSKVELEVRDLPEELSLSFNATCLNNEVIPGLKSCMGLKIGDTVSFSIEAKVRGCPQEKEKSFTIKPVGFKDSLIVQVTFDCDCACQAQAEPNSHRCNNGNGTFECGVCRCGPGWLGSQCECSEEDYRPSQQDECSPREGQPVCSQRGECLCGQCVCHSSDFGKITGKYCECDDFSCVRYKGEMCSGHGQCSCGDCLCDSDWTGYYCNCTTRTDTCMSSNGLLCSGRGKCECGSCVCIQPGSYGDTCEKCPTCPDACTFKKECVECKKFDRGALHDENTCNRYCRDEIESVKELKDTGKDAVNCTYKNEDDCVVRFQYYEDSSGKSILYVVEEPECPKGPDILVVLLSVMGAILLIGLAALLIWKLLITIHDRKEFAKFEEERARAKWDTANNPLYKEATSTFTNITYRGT

T2: mouse α1β1 integrin (mouse), Q3V3R4
T2 chain 1: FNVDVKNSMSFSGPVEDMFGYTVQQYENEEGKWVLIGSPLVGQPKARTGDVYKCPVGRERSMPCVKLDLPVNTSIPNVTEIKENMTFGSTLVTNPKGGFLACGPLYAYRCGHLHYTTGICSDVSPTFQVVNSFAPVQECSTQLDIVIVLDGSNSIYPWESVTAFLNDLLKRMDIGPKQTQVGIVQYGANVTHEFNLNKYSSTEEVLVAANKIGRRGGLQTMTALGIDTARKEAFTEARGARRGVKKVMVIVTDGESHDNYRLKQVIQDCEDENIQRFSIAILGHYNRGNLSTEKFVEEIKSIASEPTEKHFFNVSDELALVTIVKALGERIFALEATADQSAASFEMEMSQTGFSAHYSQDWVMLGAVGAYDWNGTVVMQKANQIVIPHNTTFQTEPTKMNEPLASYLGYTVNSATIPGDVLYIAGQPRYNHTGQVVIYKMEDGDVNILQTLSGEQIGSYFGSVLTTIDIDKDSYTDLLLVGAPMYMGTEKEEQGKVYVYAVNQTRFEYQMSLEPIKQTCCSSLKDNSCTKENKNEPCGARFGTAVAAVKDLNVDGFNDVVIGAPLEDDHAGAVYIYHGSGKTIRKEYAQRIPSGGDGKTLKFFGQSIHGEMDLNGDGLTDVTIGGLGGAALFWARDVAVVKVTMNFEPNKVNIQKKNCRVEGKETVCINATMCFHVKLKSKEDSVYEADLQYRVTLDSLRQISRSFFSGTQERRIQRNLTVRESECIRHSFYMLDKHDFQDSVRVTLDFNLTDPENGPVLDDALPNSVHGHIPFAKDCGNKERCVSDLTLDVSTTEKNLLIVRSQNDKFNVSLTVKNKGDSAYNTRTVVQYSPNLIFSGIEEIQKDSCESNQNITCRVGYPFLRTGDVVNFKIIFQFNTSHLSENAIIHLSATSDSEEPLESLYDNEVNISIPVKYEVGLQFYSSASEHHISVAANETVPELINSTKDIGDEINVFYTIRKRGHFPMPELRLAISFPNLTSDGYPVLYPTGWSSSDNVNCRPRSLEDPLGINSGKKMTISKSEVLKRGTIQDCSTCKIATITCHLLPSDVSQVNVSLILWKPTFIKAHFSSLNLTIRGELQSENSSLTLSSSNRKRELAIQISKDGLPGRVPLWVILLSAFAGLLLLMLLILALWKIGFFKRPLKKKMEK
T2 chain 2: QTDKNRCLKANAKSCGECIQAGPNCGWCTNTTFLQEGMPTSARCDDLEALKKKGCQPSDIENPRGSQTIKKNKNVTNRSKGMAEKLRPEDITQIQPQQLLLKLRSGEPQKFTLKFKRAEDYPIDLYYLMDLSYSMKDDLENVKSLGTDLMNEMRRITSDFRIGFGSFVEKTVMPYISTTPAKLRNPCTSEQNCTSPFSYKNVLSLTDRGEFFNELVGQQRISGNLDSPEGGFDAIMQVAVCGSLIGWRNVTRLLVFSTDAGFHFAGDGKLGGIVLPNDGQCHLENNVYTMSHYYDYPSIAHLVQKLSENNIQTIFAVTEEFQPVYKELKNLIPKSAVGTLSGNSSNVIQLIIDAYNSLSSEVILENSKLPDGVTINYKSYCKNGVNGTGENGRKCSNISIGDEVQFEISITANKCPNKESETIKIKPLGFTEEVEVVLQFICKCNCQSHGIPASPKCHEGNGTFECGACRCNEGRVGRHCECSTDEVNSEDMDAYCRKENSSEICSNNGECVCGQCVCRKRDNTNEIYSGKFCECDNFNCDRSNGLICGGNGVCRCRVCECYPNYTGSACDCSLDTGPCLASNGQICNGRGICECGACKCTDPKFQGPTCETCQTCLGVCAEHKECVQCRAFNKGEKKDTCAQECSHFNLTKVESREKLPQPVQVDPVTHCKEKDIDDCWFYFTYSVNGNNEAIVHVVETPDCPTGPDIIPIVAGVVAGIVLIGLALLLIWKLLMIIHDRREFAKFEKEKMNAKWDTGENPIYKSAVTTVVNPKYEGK

B1: echistatin, P17347 131-179 (peptide)
peptide: QCESGPCCRNCKFLKEGTICKRARGDDMDDYCNGKTCDCPRNPHKGPAT
modifications: not checked
B2: obtustatin (peptide)
peptide: CTTGPCCRQCKLKPAGTTCWKTSLTSHYCTGKSCDCPLYPG
modifications: not checked
B3: eristostatin, P0C6S4 1-49 (peptide)
peptide: QEEPCATGPCCRRCKFKRAGKVCRVARGDWNDDYCTGKSCDCPKNPWNG
modifications: not checked
B4: viperisrastatin (peptide)
peptide: B2 peptide with L24R, L38V, P40Q
modifications: not checked
B5: synthetic peptide … (SEQ ID NO: 5) (peptide)
peptide: CWKTSLTSHYC
modifications: not checked

Each binder was assayed against αIIbβ3 integrin, P08514 (assay: inhibition of adhesion of A5 cells to fibrinogen).

Binder	IC50
B1	0.05 µM
B2	> 10 µM
B3	0.005 µM

What follows are binders tested against α4β1 integrin, P13612 (assay: inhibition of adhesion of Jurkat cells to VCAM-1).

Binder	IC50
B1	> 10 µM
B2	> 10 µM
B4	> 10 µM
B3	> 10 µM

Target: αIIbβ3 integrin, P08514
Assay: inhibition of adhesion of A5 cells to fibrinogen
Remark: another data set of the same source

Binder	IC50
B4	> 10 µM
B3	0.05 µM

Target: T1, αvβ3 integrin, P06756
Assay: inhibition of adhesion of JY cells to vitronectin

Binder	IC50
B1	0.0001 µM
B2	> 10 µM
B4	> 10 µM
B3	2 µM

Each binder was assayed against α9β1 integrin, Q13797 (assay: inhibition of adhesion of SW480α9 cells to VCAM-1).
Chain of α9β1 integrin, Q13797 (Q13797 30-1035): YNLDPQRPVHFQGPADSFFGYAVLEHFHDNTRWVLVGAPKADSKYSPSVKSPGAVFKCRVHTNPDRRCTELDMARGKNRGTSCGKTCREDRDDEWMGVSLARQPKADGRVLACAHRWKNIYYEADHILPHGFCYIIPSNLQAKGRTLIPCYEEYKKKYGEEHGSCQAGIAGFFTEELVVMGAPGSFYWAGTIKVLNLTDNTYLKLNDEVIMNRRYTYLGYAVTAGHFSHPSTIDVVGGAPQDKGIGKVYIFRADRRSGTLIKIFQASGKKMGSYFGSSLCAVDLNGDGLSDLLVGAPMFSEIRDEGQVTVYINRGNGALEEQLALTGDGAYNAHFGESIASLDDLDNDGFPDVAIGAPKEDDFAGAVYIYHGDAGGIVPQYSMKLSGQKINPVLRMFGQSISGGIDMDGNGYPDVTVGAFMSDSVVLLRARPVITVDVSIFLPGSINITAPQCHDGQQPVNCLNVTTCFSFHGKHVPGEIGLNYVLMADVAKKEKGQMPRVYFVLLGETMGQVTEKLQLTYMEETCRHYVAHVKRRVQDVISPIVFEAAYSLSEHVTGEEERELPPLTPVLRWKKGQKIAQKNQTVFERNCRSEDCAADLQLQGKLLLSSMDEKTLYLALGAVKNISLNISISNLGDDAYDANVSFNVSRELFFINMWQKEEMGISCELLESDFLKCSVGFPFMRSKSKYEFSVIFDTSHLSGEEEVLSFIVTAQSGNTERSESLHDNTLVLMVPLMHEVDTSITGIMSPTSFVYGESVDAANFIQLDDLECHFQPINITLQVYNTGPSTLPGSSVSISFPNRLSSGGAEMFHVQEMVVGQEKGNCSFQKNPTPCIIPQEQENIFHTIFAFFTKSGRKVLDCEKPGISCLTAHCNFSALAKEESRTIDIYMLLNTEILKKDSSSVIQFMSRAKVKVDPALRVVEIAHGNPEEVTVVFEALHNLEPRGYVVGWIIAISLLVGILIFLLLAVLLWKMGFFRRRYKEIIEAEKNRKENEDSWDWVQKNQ

Binder	IC50
B1	> 10 µM
B2	> 10 µM
B4	> 10 µM
B3	> 10 µM

The binders below were run against α5β1 integrin, P08648 (assay: inhibition of adhesion of K562 cells to fibronectin).
Target sequence in this assay (P08648 42-1049): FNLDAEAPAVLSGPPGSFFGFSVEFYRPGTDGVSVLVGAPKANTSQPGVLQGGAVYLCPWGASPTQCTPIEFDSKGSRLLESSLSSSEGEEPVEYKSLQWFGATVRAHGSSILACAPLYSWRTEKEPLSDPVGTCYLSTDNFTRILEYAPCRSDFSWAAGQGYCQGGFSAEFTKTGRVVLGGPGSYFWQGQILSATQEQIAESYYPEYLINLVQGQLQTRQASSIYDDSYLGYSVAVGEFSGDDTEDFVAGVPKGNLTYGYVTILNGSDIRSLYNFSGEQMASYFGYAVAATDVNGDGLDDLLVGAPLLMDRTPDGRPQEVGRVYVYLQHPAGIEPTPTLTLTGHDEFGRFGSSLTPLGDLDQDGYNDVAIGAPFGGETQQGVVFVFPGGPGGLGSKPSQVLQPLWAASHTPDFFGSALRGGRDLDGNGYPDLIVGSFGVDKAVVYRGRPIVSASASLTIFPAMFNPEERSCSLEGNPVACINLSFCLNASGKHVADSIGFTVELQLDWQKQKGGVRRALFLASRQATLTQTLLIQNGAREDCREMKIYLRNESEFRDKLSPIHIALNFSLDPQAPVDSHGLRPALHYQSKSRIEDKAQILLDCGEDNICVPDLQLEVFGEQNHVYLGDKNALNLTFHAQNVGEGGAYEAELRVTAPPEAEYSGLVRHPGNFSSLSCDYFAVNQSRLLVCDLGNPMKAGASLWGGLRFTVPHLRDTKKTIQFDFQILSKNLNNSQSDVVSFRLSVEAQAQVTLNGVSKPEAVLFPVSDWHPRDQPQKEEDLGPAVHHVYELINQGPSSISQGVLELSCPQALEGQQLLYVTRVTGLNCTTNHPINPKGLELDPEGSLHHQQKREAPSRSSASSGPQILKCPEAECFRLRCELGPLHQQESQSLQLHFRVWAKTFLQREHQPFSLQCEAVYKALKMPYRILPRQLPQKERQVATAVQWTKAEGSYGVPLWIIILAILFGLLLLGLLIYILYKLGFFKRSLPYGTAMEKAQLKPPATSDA

Binder	IC50
B1	0.05 µM
B2	> 10 µM
B3	> 10 µM

Target: α5β1 integrin, P08648
Assay: as above
Remark: another data set of the same source
Target sequence in this assay (P08648 42-1049, chain 1 of 2): as the sequence (P08648 42-1049) above
Target sequence in this assay (P05556 21-798, chain 2 of 2, further chain): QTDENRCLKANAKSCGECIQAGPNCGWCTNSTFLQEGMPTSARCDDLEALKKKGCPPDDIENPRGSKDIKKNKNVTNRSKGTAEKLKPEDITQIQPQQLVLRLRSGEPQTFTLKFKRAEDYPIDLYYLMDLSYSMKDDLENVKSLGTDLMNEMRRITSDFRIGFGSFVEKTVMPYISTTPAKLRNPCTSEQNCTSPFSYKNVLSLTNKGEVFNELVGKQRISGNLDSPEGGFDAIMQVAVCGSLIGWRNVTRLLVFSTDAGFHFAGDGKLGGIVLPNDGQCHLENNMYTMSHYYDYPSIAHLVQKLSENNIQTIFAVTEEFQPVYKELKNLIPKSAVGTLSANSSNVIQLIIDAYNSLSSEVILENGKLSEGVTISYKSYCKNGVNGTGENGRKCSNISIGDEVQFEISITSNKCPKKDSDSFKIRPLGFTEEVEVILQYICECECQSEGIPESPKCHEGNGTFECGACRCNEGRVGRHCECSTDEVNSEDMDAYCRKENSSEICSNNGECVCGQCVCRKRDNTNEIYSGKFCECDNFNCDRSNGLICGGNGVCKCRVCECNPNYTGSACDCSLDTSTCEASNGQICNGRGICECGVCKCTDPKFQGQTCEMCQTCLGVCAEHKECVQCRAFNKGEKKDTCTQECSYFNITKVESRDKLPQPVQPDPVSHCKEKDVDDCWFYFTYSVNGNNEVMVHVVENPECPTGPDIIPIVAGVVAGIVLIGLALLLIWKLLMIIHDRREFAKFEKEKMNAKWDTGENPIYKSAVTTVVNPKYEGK

Binder	IC50
B2	> 5 µM
B4	> 10 µM

These binders were tested against α2β1 integrin, P17301 (assay: inhibition of adhesion of α2K562 cells to collagen I).

Binder	IC50
B1	> 10 µM
B2	> 10 µM
B4	> 10 µM
B3	> 10 µM

What follows are binders tested against human α1β1 integrin (human), P56199 (assay: inhibition of adhesion of α1K562 cells to collagen I).

Binder	IC50
B1	> 10000 nM
B2	0.5 nM
B4	0.02 nM
B3	> 10000 nM

These binders were tested against human α1β1 integrin (human), P56199 (assay: inhibition of adhesion of α1K562 cells to collagen IV).

Binder	IC50
B1	> 10000 nM
B2	2 nM
B4	0.08 nM
B3	> 10000 nM

Target: T2, mouse α1β1 integrin (mouse), Q3V3R4
Assay: inhibition of adhesion of B16F10 cells to collagen IV

Binder	IC50
B1	> 10 µM
B2	0.0002 µM
B4	0.00025 µM
B3	> 10 µM

Each binder was assayed against human α1β1 integrin (human), P56199 (assay: inhibition of adhesion of HS.939T cells to collagen IV).

Binder	IC50
B1	> 10000 nM
B2	0.1 nM
B4	0.002 nM
B3	> 10000 nM

What follows are binders tested against human α1β1 integrin (human), P56199 (assay: inhibition of adhesion of α1K562 cells to immobilised collagen IV).

Binder	IC50
B2	0.002 µM
B5	600 µM
